Results on two molecules are retold here after PMC13669270, “The isolated HEPN domain of SACSIN exhibits RNA-binding activity”.

Data set [1] has as its target T1, HEPN domain of SACSIN (tag removed) (UniProt Q9NZJ4 4441-4579).
T1 sequence: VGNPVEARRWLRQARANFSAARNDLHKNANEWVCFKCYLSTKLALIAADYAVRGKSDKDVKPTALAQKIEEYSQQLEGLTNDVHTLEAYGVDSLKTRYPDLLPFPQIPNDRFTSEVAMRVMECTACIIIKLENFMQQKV
In words: BLI; 75 nM to 10 uM protein; BLI: 20 mM potassium phosphate pH 7.4, 150 mM KCl, 0.05% Tween-20, 25 C; pull-down: PBS, 2 mM MgCl2, 0.2% NP-40, 0.05% BSA, RNase inhibitor, room temperature. The settings on record: protein: recombinant; tags: GST removed by thrombin; chain copies: 2; label: biotin; 1 strand. (BLI is a label-free optical method that tracks binding on a fibre tip over time.)

In data set [2] the target is T1, HEPN domain of SACSIN (tag removed). In words: BLI; BLI: 20 mM potassium phosphate pH 7.4, 150 mM KCl, 0.05% Tween-20, 25 C; pull-down: PBS, 2 mM MgCl2, 0.2% NP-40, 0.05% BSA, RNase inhibitor, room temperature. The settings on record: protein: recombinant; tags: GST removed by thrombin; chain copies: 2; label: 5' biotin; 1 strand; two putative G-quadruplex-forming stretches.

Turning to AACCAACUUUCGAUCUCUUGUAGAUCUGUUCU (ssRNA) [non-GC-rich RNA 32 nt], the binding result in data set [1] was “no binding”.
As a reminder, the Kd is the free concentration of one partner at which half of the binding sites on the other are occupied at equilibrium, for simple one-to-one binding. For CGGGGGCGGCGGCGGCGGCGGCGGCAGCGGGG (ssRNA) [GC-rich RNA 32 nt (predicted HEPN interacting RNA)], the Kd in data set [2] was determined as 2600 ± 300 nM.
